Data: patent US10765761B2, “Nucleic acid condensing peptide, nucleic acid condensing peptide set, nucleic acid delivery carrier, nucleic acid delivery method, cell production method, cell detection method and kit” (KABUSHIKI KAISHA TOSHIBA, priority 2016, dated 2020)

How the values were obtained:
[1] = system: plasmid vector (pDNA); test: Average particle diameter and Zeta potential of peptide-nucleic-acid complexes (zetasizer), Example 1; assay type: physicochemical; conditions: for characteristics of condensing the nucleic acid: judged from particle diameter and its dispersion (Table 2, FIGS. 4 and 5)
Protocol: The condensability of the nucleic acid by the peptide of the embodiment and the potential of the peptide-nucleic-acid complex were evaluated.
The peptides were each dissolved in 10 mM of HEPES (pH: 5.3) to prepare several peptide solutions having different peptide concentrations.
For the protamine, three peptide solutions were prepared to have peptide concentrations of: (1) 2.1 mg/ml, (2) 2.4 mg/ml and (3) 2.7 mg/ml. For the mHP-4, four peptide solutions were prepared to have peptide concentrations of: (4) 1.8 mg/ml, (5) 2.1 mg/ml, (6) 2.4 mg/ml and (7) 2.7 mg/ml. For the mHP-1, three peptide solutions were prepared to have peptide concentrations of: (8) 2.1 mg/ml, (9) 2.4 mg/ml and (10) 2.7 mg/ml. For the mHP-2, five peptide solutions were prepared to have peptide concentrations of: (11) 1.2 mg/ml, (12) 1.5 mg/ml, (13) 2.1 mg/ml, (14) 2.4 mg/ml and (15) 2.7 mg/ml. For the mHP-3, three peptide solutions were prepared to have peptide concentrations of: (16) 2.1 mg/ml, (17) 2.4 mg/ml and (18) 2.7 mg/ml. Further, plasmid vector (pDNA) was diluted with purified water to prepare a nucleic acid solution having a pDNA concentration of 3.0 mg/ml.
18 sets of nucleic acid solutions (90 μL) put in tubes were prepared and the peptide solutions (1) to (18) (90 μL) described above were dropped respectively therein and mixed while stirring each, to condense the nucleic acids. Thus, the peptide-nucleic-acid complexes were obtained. Then, the mixtures were each diluted with purified water to 25-fold to produce peptide-nucleic-acid solutions. Further, as references, samples containing only each respective peptide were also prepared without adding the nucleic acid solutions thereto.
The average particle diameter and Zeta potential of each of the peptide-nucleic-acid complexes were investigated using the peptide-nucleic-acid solutions. The average particle diameter and Zeta potential were measured using a zetasizer.

[2] = system: plasmid vector (pDNA); test: Average particle diameter, polydispersity index and Zeta potential of peptide-nucleic-acid complexes, Example 6; assay type: physicochemical; conditions: peptide-nucleic-acid complex, total peptide 0.24 mg/ml, pDNA 0.15 mg/ml
Protocol: Each of the peptides was dissolved into 10 mM-HEPES (pH: 5.4) to prepare several peptide solutions having different peptide concentrations.
For the mHP-1, one peptide solution was prepared to have a peptide concentration of (1) 0.24 mg/ml. For the mHP-2, one peptide solution was prepared to have a peptide concentration of (2) 0.24 mg/ml. For the mHP-1 and mHP-2, five peptide solutions were prepared to have a total peptide concentration of 0.24 mg/ml and mixture ratios between mHP-1 and mHP-2 of: (3) 1:1, (4) 1:3, (5) 1:5, (6) 1:7 and (7) 1:9. Meanwhile, plasmid vector (pDNA) was diluted with purified water to prepare a nucleic acid solution having a pDNA concentration of 0.15 mg/ml.
The peptide solutions (1) to (7) (100 μL) were prepared in tubes and the nucleic acid solution (200 μL) was dropped and mixed thereto while stirring each solution to condense the nucleic acids, and thus peptide-nucleic-acid complexes were obtained.
The peptide-nucleic-acid complexes were investigated in terms of average particle diameter, polydispersity index and Zeta potential using the respective peptide-nucleic-acid solutions. The average particle diameter, polydispersity index and Zeta potential were measured using a zetasizer.

[3] = system: nucleic acid; test: Gel retardation assay: encapsulation of nucleic acid to liposome, Example 4; conditions: Complex with SDS 1% (liposome cleaved), 0.8% agarose gel (FIG. 9)
Protocol: The encapsulation of nucleic acid to liposome by the peptide of the embodiment was evaluated with a gel retardation assay.
As samples for the encapsulation evaluation, two sets of 8.0 μL of 10 mM-HEPES (pH: 7.0) were prepared and 1.0 μL of solutions of Complex respectively containing the mHP-1 or mHP-3 of Example 3 and sodium dodecyl sulfate (SDS, the final concentration: 1%) which cleavages liposome were added thereto, to prepare mixtures. In addition, as controls, a mixture to which 1.0 μL of a poly-glutamic-acid (PGA) solution was added in place of SDS, and a sample which contains neither SDS nor PGA were prepared. After the solutions were let stand still for 15 minutes at room temperature, 1.0 μL of an electrophoretic buffer (50%-sucrose solution) was added to each mixture, and they were mixed well, to carry out electrophoresis with a 0.8%-agarose gel. After the electrophoresis, the gel was immersed in an ethidium bromide solution to dye the nucleic acid and the gel was photographed while irradiating it with UV, thus detecting the nucleic acid.
FIG. 9 is a photograph taken by irradiating the agarose gel with UV.

[4] = Average particle diameter and Zeta potential of liposome (zetasizer), Example 3; assay type: physicochemical
Protocol: COATSOME/SS-20 (Nippon Oil & Fats), DOPE, cholesterol and DMG-PEG were dissolved into ethanol at a molar ratio of 5:3:1:0.3, to obtain a lipid solution. Two sets of lipid solutions (0.5 ml) put into tubes were prepared, and 0.5 ml of peptide-nucleic-acid solutions (8) (mHP-1) and (16) (mHP-3) of Example 1 were dropped thereto while stirring each lipid solution, thereby forming liposomes. 9 ml of 10 mM-HEPES (pH: 5.3) was added to each of the liposome solutions to make a total amount of 10 ml (each liposome solution will be referred to as “Complex” hereinafter). Further, on an assumption that the liposome is taken into an organism, and liposome solutions (which will be referred to as “HEPES replacement”) in which ethanol, which is the solvent of Complex is substituted by HEPES were produced. The HEPES replacements were produced by condensing each solution of Complex to 1.5 ml with an ultrafiltration film for 300 kDa, adding 8.5 ml of 100 mM-HEPES (pH: 7.4) to each, performing ultrafiltration, thereafter substituting the solvent with 10 mM-HEPES (pH: 7.4), and finally condensing to 0.5 ml. Further, the HEPES replacements were filtered for sterilization with a filter with a pore diameter of 0.45 μm to prepare solutions (which will be referred to as “0.45 μm” hereinafter).
The “peptide-nucleic-acid solution”, “HEPES substituent” and “0.45 micrometer”, each of which contain the protamine, mHP-1 or mHP-3 prepared as above were examined in terms of average particle diameter of liposome, Zeta potential and amount of encapsulation of plasmid. The average particle diameter and Zeta potential were measured using a zetasizer. The amount of encapsulation of plasmid was measured using a Quant-iT PicoGreen (registered trademark) dsDNA assay kit.

[5] = pDNA/peptide 1/0.7 (peptide conc. 2.1 mg/mL)
[6] = pDNA/peptide 1/0.8 (peptide conc. 2.4 mg/mL)
[7] = pDNA/peptide 1/0.9 (peptide conc. 2.7 mg/mL)
[8] = peptide solely, no nucleic acid (Reference)

Row | Sequence | characteristics of condensing the nucleic acid [1] | Average particle diameter (zAve) [1, 5] | Zeta potential [1, 5] | Average particle diameter (zAve) [1, 6] | Zeta potential [1, 6] | Average particle diameter (zAve) [1, 7] | Zeta potential [1, 7] | Average particle diameter (zAve) [1, 8] | Zeta potential [1, 8] | Average particle diameter (zAve) [2] | Polydispersity index (PDI) [2] | Zeta potential [2] | encapsulation of nucleic acid in liposome [3] | Average particle diameter (zAve) ([4]; Peptide-nucleic acid solution) | Zeta potential ([4]; Peptide-nucleic acid solution) | Average particle diameter (zAve) ([4]; liposome, 0.45 μm filtered) | Zeta potential ([4]; liposome, 0.45 μm filtered) | Average particle diameter (zAve) ([4]; liposome, HEPES substitution) | Zeta potential ([4]; liposome, HEPES substitution)
1 | RQRQRYYRQRQRGGRRRRRR (Nucleic acid condensing peptide) [mHP-1] | excellent | 124.0 nm | −28.2 mV | 133.4 nm | −26.7 mV | 158.0 nm | −25.5 mV | 444.0 nm | 37.2 mV | 156.6 nm | 0.190 | −31.1 mV | encapsulated well | 121.4 nm | −44.50 mV | 222.0 nm | −5.26 mV | 254.1 nm | −11.30 mV
2 | RQRQRGGRRRRRR (Nucleic acid condensing peptide) [mHP-3] | excellent | 135.8 nm | −28.1 mV | 134.9 nm | −25.9 mV | 148.2 nm | −28.3 mV | 322.9 nm | 17.0 mV | – | – | – | encapsulated well | 113.4 nm | −43.90 mV | 218.2 nm | −2.95 mV | 240.5 nm | −3.39 mV
